Laboratory results from US7947279B2, “Peptide having hydrolase activity” (The Trustees of Columbia University in the City of New York, priority 2005, dated 2011).
“Also recorded” adds a separate entry of the source.

T1: Uch-L3 (Homo sapiens, UniProt P15374)
T1 sequence (P15374 1-230): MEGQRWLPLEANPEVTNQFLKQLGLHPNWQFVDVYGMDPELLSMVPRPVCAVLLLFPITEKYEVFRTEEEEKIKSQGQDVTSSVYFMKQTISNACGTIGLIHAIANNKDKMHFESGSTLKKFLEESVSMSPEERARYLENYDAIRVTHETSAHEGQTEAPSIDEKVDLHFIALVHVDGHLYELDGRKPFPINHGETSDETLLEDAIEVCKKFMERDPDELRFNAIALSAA

B1: TAT-HA-Uch-L1: fusion protein: 11-amino acid transduction domain of HIV-transactivator protein (TAT) fused with an HA tag and human Uch-L1 (protein)
chain: MQLKPMEINPEMLNKVLSRLGVAGQWRFVDVLGLEEESLGSVPAPACALLLLFPLTAQHENFRKKQIEELKGQEVSPKVYFMKQTIGNSCGTIGLIHAVANNQDKLGFEDGSVLKQFLSETEKMSPEDRAKCFEKNEAIQAAHDAVAQEGQCRVDDKVNFHFILFNNVDGHLYELDGRMPFPVNHGASSEDTLLKDAAKVCREFTEREQGEVRFSAVALCKAA
modifications: left off: small tags and cut ends

Experiments:
[1] = biological target: T1, Uch-L3; settings: cited from earlier work
[2] = biological target: T1, Uch-L3; experiment: Nedd8-AMC hydrolysis by Uch-L3; format: biochemical; settings: 5 μM LDN, 20 nM Uch-L3, Nedd8-AMC 400 nM
Method: Measurement of Hydrolase Activity: The hydrolase assay was performed as previously described (Nishikawa et al., 2003) with slight modifications. Briefly, hippocampal tissue was treated with tissue protein extraction reagent (T-PER; Pierce) containing freshly added EDTA-free protease inhibitors. Homogenate was centrifuged at 10,000 rpm for 5 min. Protein concentration was measured in the supernatant using the BCA protein assay reagent. In some experiments hydrolysis was initiated by adding 10 μl of 20 nM Uch-L1 or Uch-L3 (Boston Biochem). The hydrolase assay was performed using fluorogenic ubiquitin-7-amino-4-methylcoumarin (ubiquitin-AMC) (Boston Biochem) as a substrate. The substrate was diluted in assay buffer (50 mM Tris-HCL, 0.5 mM EDTA, 5 mM dithiothreitol and 0.1 mg/ml ovalbumin, pH 7.6). […] The reaction was monitored using a fluorescence spectrophotometer (CytoFluor Series 4000, ABI Inc) at 25° C. The free AMC fluorophore was excited at 380 nm and measured at 460 nm. Hydrolase activity was expressed as relative fluorescence intensity/min (Dang et al., 1998). In some experiments, hydrolysis was also measured on the soluble and insoluble fractions (FIG. 28D). In a group of experiments hydrolysis was measured by mixing ubiquitin-AMC with 20 nM TAT fusion proteins (FIG. 27C). […]

[3] = system: PKA; experiment: PKA kinase activity in hippocampal cultures; format: cell-based, rat; settings: fusion protein 100 nM 24 hrs; for basal PKA activity in Aβ-treated cultures: Aβ 24 hrs
Method: PKA Kinase Activity Measurement. Primary hippocampal neurons from E18 rats were dissociated and cultured as described (Vitolo et al, Proc Natl Acad Sci USA 99:13217-13221 (2002)). […]
Hippocampal slices were lysed with RIPA lysis buffer and homogenized by Dounce homogenizer on ice. 5 DIV primary cultures were treated for 24 hrs and cells were lysed with RIPA lysis buffer.
Levels of intracellular PKA kinase activity were measured by PKA Kinase Activity Assay Kit (Stressxpress) according to manufacturer's instructions.
Preparation of Cell Cultures. Hippocampal cell cultures were prepared as previously described (Vitolo et al., 2002). In cell culture experiments fetuses at embryonic day 18 from timed pregnant Sprague-Dawley rats (Taconic Farms) were used. Fetuses were sacrificed and the hippocampi removed. Neurons were then dissociated, plated on 6 well-plates coated with poly-L-lysine and maintained in a defined serum-free medium containing minimum essential medium supplemented with N-2, glucose, albumin, pyruvic acid, antibiotics and antimycotics. […] 5 DIV cells were used for the experiments.

[4] = system: monoubiquitin; experiment: Monoubiquitin levels (quantitative Western blot); format: cell-based, mouse
Method: Western Blotting: Protein levels were assessed using standard procedures. Protein extraction was performed using buffer with and without detergent. For the extraction of protein using detergent, hippocampal tissues and cultured hippocampal neurons (5 DIV) were homogenized in RIPA buffer (50 mM Tris-HCl pH 7.4, 1% Triton X-100, 1% sodium deoxycholate, 0.1% SDS, 150 mM sodium chloride, 10 mM sodium fluoride, 30 mM sodium pyrophosphate, 50 mM sodium orthovanadate) containing 1× complete protease inhibitor (Roche) and 1 mM phenylmethylsulfonyl fluoride (PMSF). For extraction of proteins without detergent, hippocampal extracts were homogenized with disposable dounce homogenizers in buffer A, containing 10 mM HEPES pH 7.3, 300 mM sucrose, protease 1× complete protease inhibitor (Roche) and PMSF. After centrifugation at 10,000×g supernatant proteins were resolved on a 8% or 4-20% gradient Tris-Glycine gel, transferred onto PVDF or nitrocellulose membrane and blocked in 5% skim milk in PBS-Tween 0.1% (PBS-T). Membranes were probed with primary antibodies, and after washing with PBS-T incubated with an appropriate HRP-conjugated secondary antibody. The following antibodies were used: mouse monoclonal anti-ubiquitin (Chemicon), rabbit polyclonal anti-pCREB (Upstate Biotech.), rabbit polyclonal anti-PKA-RIIα (Santa Cruz Biotech. Inc), mouse monoclonal anti-Uch-L1 (Novocastra), monoclonal mouse anti-HA (Santa Cruz Biotech. Inc), and anti-PKA IIα. Detection was performed using HRP-conjugated secondary antibodies (Pierce, Rockford, Ill.). To control loading and transfer, protein immunoreactivities were normalized against total extracellular signal-regulated protein kinases (ERK1/2) levels with a rabbit analyzed using a rabbit polyclonal anti-ERK1/2 antibody (Cell Signaling Technology, Inc). NIH IMAGE was used to analyze the scanned blots and quantify the intensity of the protein signals.

Row | Molecule | IC50 [1] [µM] | Uch-L3 hydrolase activity (Nedd8-AMC hydrolysis) [2] | Uch-L3 hydrolase activity (Nedd8-AMC hydrolysis) ([2]; listed as LDN) | glutamate-induced increase in PKA activity in Aβ-treated cultures ([3]; 3 μM Aβ 24 hrs, glutamate 50 μM 15 min) | basal PKA activity in Aβ-treated cultures [3] | basal PKA activity in Aβ-treated cultures ([3]; listed as TAT-Uch-L1 fusion protein) | mono-ubiquitin levels ([4]; 20 nM fusion protein 1 hour, then 200 nM oligomeric Aβ plus fusion protein 20 min) | monoubiquitin levels ([4]; fusion protein 20 nM 1 hr pre-incubation plus Aβ) | monoubiquitin levels ([4]; fusion protein 20 nM 1 hr pre-incubation plus Aβ, listed as TAT-A-Uch-L1 peptide) | monoubiquitin levels ([4]; fusion protein 20 nM 1 hr pre-incubation plus Aβ, listed as TAT-Uch-L1 fusion protein) | mono-ubiquitin levels ([4]; fusion protein alone) | monoubiquitin levels ([4]; substance alone)
1 | CC(=O)O/N=C1\C(=O)N(Cc2cc(Cl)ccc2Cl)c2ccc(Cl)cc21 [LDN-57444, reference compound] | 25 | does not affect Uch-L3 hydrolase activity | no reduction in hydrolysis of Nedd8-AMC | – | – | – | – | – | – | – | – | –
2 | B1 | – | – | – | rescued the increase in PKA activity; also recorded: rescued the glutamate-induced increase in kinase activity | reversing the Aβ-induced decrease in basal PKA activity; also recorded: re-established; also recorded: increased levels of kinase activity | re-establishes normal levels | 90.25±17.25 % of control | normal monoubiquitin levels; also recorded: blocks the decrease of monoubiquitin levels | annulled the decrease | re-establishes normal mono-ubiquitin levels | 121.03±14.69 % of control | slight increase
